This note sets out measurements from US7481993B2, “Chelators for radioactively labeled conjugates comprising a stabilizing sidechain” (Schering AG, priority 2005, dated 2009).

Data set [1] in a line: Cysteine challenge stability of ^188Re chelator peptides. It is filed as physicochemical. The following applies: radiolabeled with ^188Re. The protocol: For the ^188Re radiolabeling, a peptide as the TFA salt was dissolved in saline at 1 mg/mL and 100 μg (100 μL) was added to a ^188Re placebo vial. To the vial was added 100 μg stannous chloride dihydrate. The vial was reconstituted with 0.9 mL rhenium ^188Re sodium perrhenate containing approximately 20 mCi and saline such that the final preparation volume was 1.5 mL. The vial was heated in a boiling water bath for 15 minutes and cooled at room temperature for 10 minutes. Finally 1 mL of an antioxidant stabilizer solution containing 10 mg gentisic acid sodium salt monohydrate and 20 mg ascorbic acid was added to the vial.
(§1) The radiochemical purity (RCP) of the ^99mTc or ^188Re peptides was measured by gradient reversed phase HPLC using a Eurosphere-100 C18 HPLC column and 0.1% TFA mobile phases moderated with acetonitrile. Radioactive components were detected in the HPLC system using an in-line radiometric detector. Under the gradient conditions employed radiolabeled impurities (for example: ^99mTc glucoheptonate, ^99mTc edetate, and ^99mTc pertechnetate) eluted early (between 1 and 4 minutes), while the radiolabeled peptides eluted much later (between 8 and 20 minutes). In general, two isomeric radiometal complexes were observed, and the HPLC RCP was measured as the sum of the percent areas of the peaks corresponding to the two complexes. Radiochemical purity results for each of compounds are summarized in the examples that follow.
(§2) To ^99mTc radiolabelled peptide preparations described in Example 3 was added 150 μg of cysteine (approximately a 7-fold molar excess over peptide), and the preparations were stored at room temperature and monitored by HPLC for up to 12 hours. The amount of ^99mTc cysteine formed over time was noted. The initial HPLC analysis was started within 5 minutes of adding cysteine. In all cysteine challenge studies, a chelator compound containing a stabilizing sidechain was screened vs. the corresponding control chelator compound containing no sidechain. The relative amount of ^99mTc cysteine formed over time correlates inversely with the stability of the chelator (ie. less ^99mTc cysteine indicates higher chelator stability).
Some of the N^1—N^2-Cys (N^1, N^2=independently any amino acid) model chelator peptides described in Example 7 were radiolabeled with ^188Re and screened in the cysteine challenge experiment described in Example 4. Two chelators (See FIG. 4) were compared directly to the control chelator containing no stabilizing sidechain. In these studies, the products were monitored for 6 hours. Results in Table 8 represent % Peptide complexed to ^188Re (ie. 100%−the amount of ^188Re cysteine) vs. time.

Data set [2] in a line: Cysteine challenge stability of ^99mTc chelator peptides. It is filed as physicochemical. The following applies: N1-N2-Cys triamide thiol chelators. The protocol: For the ^99mTc radiolabeling, a peptide as the TFA salt was dissolved in saline at 1 mg/mL and 100 μg (100 μL) was added to a ^99mTc placebo vial. The vial was reconstituted with 0.9 mL technetium ^99mTc sodium pertechnetate containing approximately 20 mCi and saline such that the final preparation volume was 1.1 mL. The vial was heated in a boiling water bath for 10 minutes and cooled at room temperature for 10 minutes.
as §1, §2
Several model chelator peptides were prepared with an N^1—N^2-Cys (N^1, N^2=independently any amino acid) amino acid sequence capable of complexing technetium as a triamide thiol chelator. Various stabilizing sidechains were substituted into the N^1—N^2-Cys chelator in two positions R1 and R2 as depicted in FIG. 4. The compounds were screened in the cysteine challenge experiment described in Example 4. Several experiments were conducted where 1-2 chelators were compared directly to a control chelator containing no stabilizing sidechain (compound GoC1 was also analyzed alone in a further study). Results in Table 5 represent % Peptide complexed to ^99mTc (ie. 100%−the amount of ^99mTc cysteine) vs. time.
Several model chelator peptides were prepared with an (β)Dap-N^2-Cys (N^2=any amino acid) amino acid sequence capable of complexing technetium as an amine diamide thiol chelator. This chelator is the chelator in the somatostatin peptides that were evaluated in Examples 5 and 6. Various stabilizing sidechains were substituted into the (β)Dap-N^2-Cys chelator in two positions R3 and R4 as depicted in FIG. 5. The compounds were screened in the cysteine challenge experiment described in Example 4. Several experiments were conducted where 1-2 chelators were compared directly to a control chelator containing no stabilizing sidechain. Results in Table 6 are the same as described in Example 7.
Two model chelator peptides were prepared with a ma-N^1—N^2 (Ma=mercaptoacetyl; N^1, N^2=independently any amino acid) amino acid sequence capable of complexing technetium as a triamide thiol chelator. This chelator has the thiol donor group at the N-terminus of the peptide. A stabilizing sidechain was substituted into the ma-N^1—N^2 chelator in position R5 as depicted in FIG. 6. The compounds were radiolabeled according to Example 3 with the exception that additional NaOH was added to bring the pH of the preparation up to pH 8.5. […]

Values joined by “and” are separate entries in the source; they are usually repeats but may differ in a detail not shown here. Equal values may be shown once. * marks the point of attachment. Bz = O=C(c1ccccc1)*

As to “Bz-Gly-Gly-Gly-Cys-Ala.amide (Bz-GGGCA-NH2; SMILES C[C@H](NC(=O)[C@H](CS)NC(=O)CNC(=O)CNC(=O)CNC(=O)c1ccccc1)C(N)=O) [GGC1, control chelator, no stabilizing sidechain]”, the “% Peptide Complexed to ^188Re” value in data set [1] (1.5 h) was 80.1%; in data set [1] (3 h) it was 61.4%; in data set [1] (4.5 h), 50.2%; in data set [1] (6 h), 47.7%; in data set [1] (N1-N2-Cys chelators, Initial), 100%. The “% Peptide Complexed to ^99mTc Initial” value in data set [2] (150 μg cysteine, room temperature, Initial (within 5 minutes)) was 98.2% and 98.8% and 96.9%. For the same substance, the “% Peptide Complexed to ^99mTc 2 h” value in data set [2] (cysteine challenge, 2 h) was 83.4% and 83.6% and 85.2%. The “% Peptide Complexed to ^99mTc 4 h” value in data set [2] (cysteine challenge, 4 h) was 83.5% and 74.0% and 71.7%. Further, in data set [2] (cysteine challenge, 6 h), the “% Peptide Complexed to ^99mTc 6 h” value was 74.3% and 72.0%. Also, the “% Peptide Complexed to ^99mTc 8 h” value in data set [2] (cysteine challenge, 8 h) was 69.8% and 68.3% and 61.7%. Also, the “% Peptide Complexed to ^99mTc 10 h” value in data set [2] (cysteine challenge, 10 h) is 57.9% and 65.0% and 60.0%. For the same substance, in data set [2] (cysteine challenge, 12 h), the “% Peptide Complexed to ^99mTc 12 h” value was 60.7% and 49.7%.
